Measurements published in the nanobody polyreactivity screen of Harvey et al. (2022).

Test: yeast display, Sf9 membrane polyspecificity reagent, FACS + sequencing; frameworks hold sequencing errors
Method in brief: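 Galactose induction of a Saccharomyces cerevisiae BJ5465 synthetic nanobody display library ran 36–48 hours. The cells were then stained for 1 hour at 4 °C with 10% biotinylated, detergent-solubilized Sf9 membrane reagent, pulled down on streptavidin microbeads and FACS-sorted into low and high (top ~1%) gates on expression and reagent-binding fluorescence. Labels for polyreactivity follow the gate of origin.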
With “QVQLVESGGGLVQAGGSLRLSCAASGRIFGGNAMGWYRPAPGKERELVGGISRRGGSTYYADSVKGRFTISRDNAKNTVYLQMYSLKPEDTAVYYCNAYYRYSVFAEKYDYWGQGTQVTVSS” the “polyreactivity (PSR sort gate)” value was “high polyreactivity”.
In the case of “QVQLVESGGGLVQAGGSLRLSCAASGRIFGGNAMGWYRQAAGKERELVAGITGSGGSTYYADSVKGRFTISRDNAKNTVYLQMISLKPEDTAVYYCAAGYTYYYPSSGFDYWGQGTQVTVSS”, the “polyreactivity (PSR sort gate)” value is reported as “low polyreactivity”.
In the case of “QVQLVESGGGLVQAGGSLRLSCAASGRIFGGNAMGWYRQAPGKECELVAAISKGGGSTNYADSVKGRFTISRDNAKNTVYLQMNSLKPEDTAVYYCAAVVSAHADDVDYWGQGTQVTVSS”, the “polyreactivity (PSR sort gate)” value is reported as “high polyreactivity”.
With “QVQLVESGGGLVQAGGSLRLSCAASGRIFGGYAMGWSRQAPGKERELVAAISNGGSTYYADSVKGRFTISRDNAKNTVYLQMNSLKPEDTAVYYCAARWNWTGYRYDHWGQGTQVTVSS” the “polyreactivity (PSR sort gate)” value was “low polyreactivity”.
For “QVQLVESGGGLVQAGGSLRLSCAASGRIFGGYAMGWYRQAPGKEREFVAAITTSGGSTYYADSVKGRFTISRDNAKNTVYFQMNSLKPEDTAVYYCAARGYIPARFVSLVYRYYYWGQGTQVTVSS”, the “polyreactivity (PSR sort gate)” value was “high polyreactivity”.
In the case of “QVQLVESGGGLVQAGGSLRLSCAASGRIFGGYAMGWYRQAPGKERELVASITGGGTTDYADSVKGRFTISRDNAKNTVYLQMNSLKPEDTAVYYCAKRSHQFGVSRSYNTYYYWGQGTQVTVSS”, the “polyreactivity (PSR sort gate)” value is reported as “low polyreactivity”.
For “QVQLVESGGGLVQAGGSLRLSCAASGRIFGGYTMGWYRQAHGKERELFAAITGSGGRTYYAYSVKGRFTISRDNAKNTVYLQMNSLKPEDTAVYYCNTVYRYRYYWGEGTQVTVSS”, the “polyreactivity (PSR sort gate)” value was “high polyreactivity”.
For “QVQLVESGGGLVQAGGSLRLSCAASGRIFGGYTMGWYRQAPGKEREFVAAITSSGGSTYYADSVKGRFTISRDNAKNTVYLQMNSLKPEDTAVYYCAVDDYYYDYDYWGQGTQVTVSS”, the “polyreactivity (PSR sort gate)” value was “low polyreactivity”.
With “QVQLVESGGGLVQAGGSLRLSCAASGRIFGHYTMGWYRQAPGKERELVAAISWGGVRTYYADSVKGRFTISRDNAKNTVYLQMNSLKPEVTAVYYCAARWRRYVYPDGHLFWYDYWGQGTQVTVSS” the “polyreactivity (PSR sort gate)” value was “high polyreactivity”.
With “QVQLVESGGGLVQAGGSLRLSCAASGRIFGHYVMGWYRQAPGKERELVAAISYSGGSTYYADSVKGRFTISRDNAKITVYLQMISLKPEDTAVYYCAARETQDSPYGAYYYWGQGTQVTVSS” the “polyreactivity (PSR sort gate)” value was “high polyreactivity”.
For “QVQLVESGGGLVQAGGSLRLSCAASGRIFGINAMGWYRQAPGKERELVASIDGGGSKNYADSVKGRFTISRDNAKNTVYLQMNSLKPEDTAVYYCAKERSEYRSRHQAYRYDYWGQGTQVTVSS”, the “polyreactivity (PSR sort gate)” value was “low polyreactivity”.
In the case of “QVQLVESGGGLVQAGGSLRLSCAASGRIFGINSMGWYRQAPGKERELVAAITGGGSTYADSVKGRFTISRDNAKNTVYLQMNSLKPEDTAVYYCAAVSPRRYRYDYWGQGTQVTVSS”, the “polyreactivity (PSR sort gate)” value is reported as “low polyreactivity”.
For “QVQLVESGGGLVQAGGSLRLSCAASGRIFGKYAMGWYRQAPGKERELVAANSRSCASTYYADSVKGRFTISRDNAKNTVYLQMNSLKPEDTAVYYCAAVPPYNYRFRVDYWGQGTQVTVSS”, the “polyreactivity (PSR sort gate)” value was “high polyreactivity”.
For “QVQLVESGGGLVQAGGSLRLSCAASGRIFGKYAMGWYRQAPGKEWELVAAISSSGGSTYYADSVKGRFTISRDNAKNTVYLQMNSLKPEDTAVYYCNAPQYWRRSYREYDYWGQGTQVTVSS”, the “polyreactivity (PSR sort gate)” value was “high polyreactivity”.
In the case of “QVQLVESGGGLVQAGGSLRLSCAASGRIFGKYPMGWYRQAPAKERELVAAIRITGGSTYYADSVKGRFTISRDNAKNTVYLQMNSLKPEDTAVYYCAAVYKYADVIYDYWGQGTQVTVSS”, the “polyreactivity (PSR sort gate)” value is reported as “high polyreactivity”.
In the case of “QVQLVESGGGLVQAGGSLRLSCAASGRIFGKYVMGWYRQAPGKERELVAAIRSSGGSTYYADSVKGRFTISRDNAKNTVYLQLNSLKPEDTAVYYCAKRLHYSAPRYTENDYWGQGTQVTVSS”, the “polyreactivity (PSR sort gate)” value is reported as “high polyreactivity”.
In the case of “QVQLVESGGGLVQAGGSLRLSCAASGRIFGLYAMGWYRQAPGKERELVAAISVISTGPYYADSVKGRFTISRDNAMNTVYFQMNSLKPEDTAVYYCNADSVQYTPPESDYWGQGTQVTVSS”, the “polyreactivity (PSR sort gate)” value is reported as “low polyreactivity”.
For “QVQLVESGGGLVQAGGSLRLSCAASGRIFGLYAMGWYRQAPGKERELVAAITDSDGSTYYADSVKGRFTISRDNAKNTVYLQMNSLKPEDTAVYYCNKRLPLIRTSWAYDYWGQGTQVTVSS”, the “polyreactivity (PSR sort gate)” value was “low polyreactivity”.
In the case of “QVQLVESGGGLVQAGGSLRLSCAASGRIFGLYAMGWYTQAPGKERELVAAYADSVKGRFTISRDNAKNTVYLQMNSRKPVDTAVYYCAKGPLYAGSTIDLRDFNYWGQGTQVTVSS”, the “polyreactivity (PSR sort gate)” value is reported as “low polyreactivity”.
For “QVQLVESGGGLVQAGGSLRLSCAASGRIFGLYLGWYRQAPGKERELVATITWRGGSTYYADSVKGRFTISRDNAKNTVYLHLNSVKPEDTEVYYCAARGYRGRMGYWGQGTQVTVSS”, the “polyreactivity (PSR sort gate)” value was “low polyreactivity”.
In the case of “QVQLVESGGGLVQAGGSLRLSCAASGRIFGNYAMGWYRQAPGKERELVAAISGGGSTYYADSVKGRFTISRDNAKNTVYLQMNSLKPEDTAVYYCAARFLWSVFGRKGGFWGQGTQVTVSS”, the “polyreactivity (PSR sort gate)” value is reported as “low polyreactivity”.
For “QVQLVESGGGLVQAGGSLRLSCAASGRIFGNYAMGWYRQAPGKERELVAAITSGARTYYADSVKGRFTISRDNAKNTVYLQMNSLKPEDTAVYYCAAYHKSYSYRYDYWGQGTQVTVSS”, the “polyreactivity (PSR sort gate)” value was “high polyreactivity”.
With “QVQLVESGGGLVQAGGSLRLSCAASGRIFGPYAMGWDRQAPGKERELVAAITWRGDRTYYADSVKGRFTISRDNPKNTVYLQMNSLKPEDTAVYYCAARGGRSEYDYWGQGTQVTVSS” the “polyreactivity (PSR sort gate)” value was “low polyreactivity”.
With “QVQLVESGGGLVQAGGSLRLSCAASGRIFGPYAMGWYRQAPGKERELVAAITWSSGITYYADSVKGRFTISRDNAKNTVYLQMNSLKPEDTAVYYCAADSRLPYYRIMEYWGQGTQVTVSS” the “polyreactivity (PSR sort gate)” value was “low polyreactivity”.
In the case of “QVQLVESGGGLVQAGGSLRLSCAASGRIFGPYAMGWYRQAPGKEREWVAAISYSGGRTRYADSVKGRFTISRDNAKNTVYLQMNSLKPEDTAVYYCNRVIPTQSLRDYYWGQGTQVTVSS”, the “polyreactivity (PSR sort gate)” value is reported as “high polyreactivity”.
For “QVQLVESGGGLVQAGGSLRLSCAASGRIFGPYTMAWYRQAPRKERELVAAISRRGGSTYYADSVKGRFTISRDNAKNTVYLQMTSLKPEDTAVYYCAAKIYFLAILYDYWGQGTQVTVSS”, the “polyreactivity (PSR sort gate)” value was “high polyreactivity”.
With “QVQLVESGGGLVQAGGSLRLSCAASGRIFGQNAMGWYRQSPGKERELVAVITSRGTRTYYADSVKGRFTISRDNAKNTVYLQMNSLNQEDTAVYYCAADVYSDNYKTWPYDYWGQGTQVTVSS” the “polyreactivity (PSR sort gate)” value was “low polyreactivity”.
With “QVQLVESGGGLVQAGGSLRLSCAASGRIFGQNVMGWYRQAPGKERELVAAITSAGRTYYADSVKGRFTISRDNAKNTVYLQMNSLKPEDTAVYYCAKVVSRKGYGYWGQGTQVTVSS” the “polyreactivity (PSR sort gate)” value was “high polyreactivity”.
In the case of “QVQLVESGGGLVQAGGSLRLSCAASGRIFGRNAMGWYIQAPGTERELVAAISKSGTSTYYADSVKGRFTISRDNAKNTVYLQMNSLKPEDTAVYYCAAALPGYGDYYYWGQGTQVTVSS”, the “polyreactivity (PSR sort gate)” value is reported as “high polyreactivity”.
In the case of “QVQLVESGGGLVQAGGSLRLSCAASGRIFGRNAMGWYRQAPGKERELVAAISSGGSTYYADSVKGRFTISRDNAKNTVYLQMNSLKPEDTAVYFCAVRGSYYNGGRAFESWGQGTQVTVSS”, the “polyreactivity (PSR sort gate)” value is reported as “high polyreactivity”.
For “QVQLVESGGGLVQAGGSLRLSCAASGRIFGRNAMGWYRQAPGKERELVAAISSSGGTYYADSVKGRFTISRDNAKNTVYLQMNSLKPEDTAVYYCAADGPVTGWFYTAIGWVKYDYWGQGTQVTVSS”, the “polyreactivity (PSR sort gate)” value was “high polyreactivity”.
With “QVQLVESGGGLVQAGGSLRLSCAASGRIFGRTAMGWYRKAPGKERELVAAISWRGGNTYYADSVKGRFTISRDNAKNTVYLQMNSLKPEDTAVYYCNTVQYRNEMGYWGQGTQVTVSS” the “polyreactivity (PSR sort gate)” value was “high polyreactivity”.
In the case of “QVQLVESGGGLVQAGGSLRLSCAASGRIFGRYALGWYRQAPGKERELVAAISSSGGSTYFADSVKGRFTISRDNAKNTVYLQMNSLKPEDTAGYYCAADVSAKRYYWGQGTQVTVSS”, the “polyreactivity (PSR sort gate)” value is reported as “high polyreactivity”.
For “QVQLVESGGGLVQAGGSLRLSCAASGRIFGRYAMGWYRPAPGKERELVAGISARGGSTYYADSVKGRFTISRDNAKNTVYLQMNSLKPEDTAVYYCAARPYSIVPYDYWGQGTQVTVSS”, the “polyreactivity (PSR sort gate)” value was “high polyreactivity”.
In the case of “QVQLVESGGGLVQAGGSLRLSCAASGRIFGRYAMGWYRQAPGKERELVAAISSGSSTNYADSLKGRFTISRDNAKNTVYLQMNSLKPEDTAVYYCAVVLYRHWWYDYWGQGTQVTVSS”, the “polyreactivity (PSR sort gate)” value is reported as “high polyreactivity”.
With “QVQLVESGGGLVQAGGSLRLSCAASGRIFGRYAMGWYRQAPGKERELVAAITSSGGNTYYADSVKGRFTISRDNAKNTVYLQMNSLKPEDTAVYYCNALSARSRLQSDYWGQGTQVTVSS” the “polyreactivity (PSR sort gate)” value was “high polyreactivity”.
With “QVQLVESGGGLVQAGGSLRLSCAASGRIFGRYAMGWYRQAPGKERELVASITRRGGSTYYADSVKGRFTISRDNAKNTVYLQMNSLKPEDTAVYYCAAGGFSWEGDSWGQGTQVTVSS” the “polyreactivity (PSR sort gate)” value was “high polyreactivity”.
For “QVQLVESGGGLVQAGGSLRLSCAASGRIFGRYAMGWYRQAPGKERELVAVISARGARTYYADSVKGRFTISRDNAKHTVYLQMNSLKPEDTAVYYCAVDQYATDDYWGQGTQVTVSS”, the “polyreactivity (PSR sort gate)” value was “high polyreactivity”.
With “QVQLVESGGGLVQAGGSLRLSCAASGRIFGRYVMGWYRQAPGKERELVAAITSRDDSTYYADSVKGRFTISRDNAKNTVYLQMNSLKPEDTAVYYCAATWGRGYDYWGQGTQVTVSS” the “polyreactivity (PSR sort gate)” value was “high polyreactivity”.
In the case of “QVQLVESGGGLVQAGGSLRLSCAASGRIFGSFAMGWYRQAPGKERELVAAITKRGGRTYYADSVKGRFTISRDNANNTVYLQMNSLKPEDTAVYYCRIASYDYWGQGTQVTVSA”, the “polyreactivity (PSR sort gate)” value is reported as “high polyreactivity”.
In the case of “QVQLVESGGGLVQAGGSLRLSCAASGRIFGSNPMGWYRQAPGKERELVAAISSGGSTSYADSVKGRFTISRDNAKKTVYLQMNSLKPEDTAVYYCAADRFAFYGRYRGPYYYWGQGTQVTVSS”, the “polyreactivity (PSR sort gate)” value is reported as “high polyreactivity”.
For “QVQLVESGGGLVQAGGSLRLSCAASGRIFGSYAMGWYRQAPGKERELVAAITRSGGSTYYADSVKGRFTISRDNAKNTVYLQMNSLKPEDTAVYYCAARYGIRYAYFGRFDYWGQGTQVTVSS”, the “polyreactivity (PSR sort gate)” value was “high polyreactivity”.
With “QVQLVESGGGLVQAGGSLRLSCAASGRIFGSYAMGWYRQAPGKERELVAGIRSVGSTYYADSVKGRFTISRDNAKNTVYFQMNSLKPEDTAVYYCAAEYFNQNTRQGYDSWGQGSQVTVSS” the “polyreactivity (PSR sort gate)” value was “low polyreactivity”.
